One test addresses T1, Aβ1–42 binding to RAGE (Homo sapiens, UniProt Q15109).
T1 construct: purchased R&D Systems Inc. (RAGE Fc chimera); Bachem (Aβ1–42)
Nature of the test: ELISA: competitive inhibition of Aβ1–42 binding to RAGE by neutrophil proteins added simultaneously. Here is the method:
(§1) The plates were washed three times with PBS containing 0.05% tween (PBST), and then blocked in PBST containing 3% bovine serum albumin (BSA). Indicated proteins were added to the plate in 50 μL PBST containing 0.1% BSA and incubated at 37°C for 70 mins. Wells were washed four times with PBST, and then incubated with 50 μL of goat anti-RAGE primary antibody (0.5 μg/ml) or mouse anti-APP/Aβ antibody (0.5 μg/ml-1 μg/ml) for 1 h. After washing the wells four times with PBST, 50 μL of rabbit anti-goat at 0.16 μg/ml or donkey anti-mouse at 0.04–0.08 μg/ml secondary antibodies were added for 1 h at room temperature.
(§2) All statistics were performed using Graph Pad Prism 6 (GraphPad Software, La Jolla, CA). Data are represented as mean± SEM of results. […] Two-way analysis of variances (ANOVAs) were performed with Dunnett’s multiple comparison tests. […] Kruskal-Wallis tests with Dunn’s multiple comparison tests were used to analyze binding by Far-Western dot blotting (see figure legends 3 and 6 for details on multiple comparison tests). […] To obtain dissociation constants (Kd), half-maximal inhibitory concentrations (IC50), and maximum absorbance values, BSA was subtracted as background and values were fitted to a curve of nonlinear regression.
On the technique in general: An ELISA detects its analyte on a solid surface through an enzyme-linked reagent.

Test [1] concerns the target T2, Aβ1–42 (Homo sapiens, UniProt P05067).
T2 construct: Amyloid beta 1–42 (Aβ1–42), a known RAGE ligand; purchased Bachem (Torrance, CA)
Nature of the test: ELISA: binding of Aβ1–42 to coated neutrophil proteins. The conditions noted are these: for Log binding (Aβ1–42): 0.5 μg/well coated protein, with protease inhibitor cocktail, log OD 492 nm, mean ± SEM, n = 3; for maximum absorbance value for Aβ1–42 binding: ELISA with protease inhibitors, BSA subtracted, nonlinear regression fit. As for the experimental part:
as §1, §2

Test [2] deals with T2, Aβ1–42. Nature of the test: Far-Western dot blot: binding of Aβ1–42 to spotted neutrophil proteins. The conditions noted are these: Aβ1–42 […] (56 nM) with protease inhibitor cocktail; 1 μg spotted protein. Here is the method: After spotting, membranes were rinsed with ultrapure water, and Ponceau S (Sigma Aldrich) was used to stain for spotted proteins. Ponceau S was rinsed off with ultrapure water, and membrane blots were blocked for 2 h at room temperature in PBST containing 3% BSA. […] Blots were washed three times with PBST for 10 min, and then incubated with either rabbit anti-RAGE primary antibody (0.8μg/ml) or mouse anti-APP/Aβ (0.25μg/ml) for 2 h at room temperature. Blots were washed three times with PBST for 10 min, and then incubated with donkey anti-rabbit or donkey anti-mouse secondary antibodies at 0.04μg/ml for 45 min at room temperature. Blots were washed three times with PBST. Enhanced chemiluminescent or SuperSignal West femto maximum sensitivity substrates (Pierce) were used to develop blots. Mean dot densities were quantified and normalized to ponceau S dot densities using Image J software (National Institutes of Health (NIH), Bethesda, MD).
Blots were incubated with rocking overnight at 4°C.
as §2

Test [3] has as its target T3, RAGE Fc chimera (Homo sapiens, UniProt Q15109). Nature of the test: ELISA: binding of RAGE to coated neutrophil proteins. Set-up: purchased R&D Systems Inc. (Minneapolis, MN). The conditions noted are these: for maximum absorbance value for RAGE binding: ELISA, BSA subtracted as background, nonlinear regression fit; for Log binding (RAGE): wells coated 0.5 μg/well protein, log-transformed OD 492 nm, mean ± SEM. Here is the method: as §1
Goat anti-RAGE primary antibody at 0.5 μg/ml was used to detect bound RAGE.
as §2

The target in test [4] is T3, RAGE Fc chimera. Nature of the test: Far-Western dot blot: binding of RAGE to spotted proteins ± GM-0111. Further details: purchased R&D Systems Inc. (Minneapolis, MN). The conditions noted are these: 1 μg spotted protein (0.5 μg Aβ1–42). As for the experimental part: as §2
The target of test [5] is T3, RAGE Fc chimera. Nature of the test: ELISA: Aβ1–42 binding to RAGE after pre-incubation of Aβ1–42 with neutrophil proteins. Further details: purchased R&D Systems Inc. (RAGE Fc chimera); Bachem (Aβ1–42). As for the experimental part: as §1
In this set of experiments, the maxisorp plates were coated with RAGE Fc chimera (0.5 μg/well, 83.3 nM) overnight at 4°C.
as §2

Usually IC50 stands for the concentration that inhibits the measured activity by half. Usually Kd stands for a measure of binding affinity in units of concentration.

T3 sequence (Q15109 with tags, fused parts or gaps limits assumed): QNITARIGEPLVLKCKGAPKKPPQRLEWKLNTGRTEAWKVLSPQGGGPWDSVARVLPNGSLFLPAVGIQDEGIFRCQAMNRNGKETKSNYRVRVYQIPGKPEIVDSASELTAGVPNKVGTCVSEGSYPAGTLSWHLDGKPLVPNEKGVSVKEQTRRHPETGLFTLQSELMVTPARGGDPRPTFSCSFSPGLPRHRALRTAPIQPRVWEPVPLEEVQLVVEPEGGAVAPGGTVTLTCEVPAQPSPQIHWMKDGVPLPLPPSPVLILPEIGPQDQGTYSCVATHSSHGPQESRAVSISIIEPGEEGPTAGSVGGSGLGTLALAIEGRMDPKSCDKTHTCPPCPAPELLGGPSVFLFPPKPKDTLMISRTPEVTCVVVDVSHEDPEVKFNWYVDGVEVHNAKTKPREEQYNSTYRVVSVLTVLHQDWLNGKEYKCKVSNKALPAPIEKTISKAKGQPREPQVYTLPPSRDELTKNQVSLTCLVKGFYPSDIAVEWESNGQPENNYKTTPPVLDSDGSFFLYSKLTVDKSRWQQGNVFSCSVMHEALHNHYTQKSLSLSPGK
T1 sequence (Q15109 with tags, fused parts or gaps limits assumed): as above

Take neutrophil elastase: the IC50 with Aβ1–42 binding to RAGE (read-out: IC50 for inhibition of Aβ1–42 binding to RAGE, Aβ1–42 11 nM added simultaneously with the protein to RAGE-coated wells, absence of protease inhibitors) was 4.85 nM. The “inhibition of Aβ1–42 binding to RAGE in the presence of protease inhibitors” value with Aβ1–42 binding to RAGE (with protease inhibitor cocktail, Aβ1–42 11 nM) is reported as “No inhibition”. For the same substance, the “Log binding (Aβ1–42)” value in the test with Aβ1–42 [1] (Aβ1–42 0 nM (background)) is -1.061; with Aβ1–42 [1] (Aβ1–42 3.47 nM), -0.961; with Aβ1–42 [1] (Aβ1–42 13.89 nM) it was “• -0.720±0.151 • p = 0.0064”; with Aβ1–42 [1] (Aβ1–42 27.78 nM), “• -0.414±0.154 • p<0.0001”; in the test with Aβ1–42 [1] (Aβ1–42 55.56 nM), “• -0.146±0.153 • p<0.0001”; with Aβ1–42 [1] (Aβ1–42 […]), “• -0.890±0.127 • p = 0.0064”. Besides, the “maximum absorbance value for Aβ1–42 binding” value with Aβ1–42 [1] worked out at 5.89. The “binding of Aβ1–42 (far-Western dot blot)” value in the test with Aβ1–42 [2] is recorded as “low binding”. In addition, in the test with RAGE Fc chimera [3], the “maximum absorbance value for RAGE binding” value worked out at 1.11. In addition, the “Log binding (RAGE)” value is given as -0.756 in the test with RAGE Fc chimera [3] (RAGE 0 nM (background)), -0.376 with RAGE Fc chimera [3] (RAGE 0.83 nM), “• -0.274±0.113 • p = 0.046” in the test with RAGE Fc chimera [3] (RAGE 1.67 nM) and “• -0.121±0.104 • p = 0.003” with RAGE Fc chimera [3] (RAGE 3.33 nM). In addition, in the test with RAGE Fc chimera [4], the “binding of RAGE (far-Western dot blot)” value is “did not detect visible binding”. The “maximum absorbance value for Aβ1–42 binding to RAGE” value with RAGE Fc chimera [5] (Aβ1–42 pre-incubated with neutrophil elastase 2 μg/ml) is reported as 0.15 OD 492 nm. Moreover, in the test with RAGE Fc chimera [5] (read-out: KD value for Aβ1–42 binding to RAGE, Aβ1–42 pre-incubated overnight 4°C with neutrophil elastase 2 μg/ml (80 nM)), the Kd was 131 nM.
With cathepsin G, the “Log binding (Aβ1–42)” value with Aβ1–42 [1] (Aβ1–42 0 nM (background)) is reported as “• -0.884±0.103 • p = 0.0004”; in the test with Aβ1–42 [1] (Aβ1–42 3.47 nM), “• -0.368±0.157 • p<0.0001”; with Aβ1–42 [1] (Aβ1–42 13.89 nM), “• 0.019±0.165 • p<0.0001”; in the test with Aβ1–42 [1] (Aβ1–42 27.78 nM), “• 0.151±0.149 • p<0.0001”; with Aβ1–42 [1] (Aβ1–42 55.56 nM), “• 0.310±0.125 • p<0.0001”. In addition, the “maximum absorbance value for Aβ1–42 binding” value with Aβ1–42 [1] was found to be 3.54. Also, in the test with Aβ1–42 [2], the “binding of Aβ1–42 (far-Western dot blot)” value was “strong binding”. The “maximum absorbance value for RAGE binding” value with RAGE Fc chimera [3] stood at 2.14. Moreover, the “Log binding (RAGE)” value with RAGE Fc chimera [3] (RAGE 0 nM (background)) is recorded as -0.426; in the test with RAGE Fc chimera [3] (RAGE 0.83 nM), “• 0.101±0.084 • p<0.0001”; with RAGE Fc chimera [3] (RAGE 1.67 nM) it was “• 0.166±0.092 • p<0.0001”; in the test with RAGE Fc chimera [3] (RAGE 3.33 nM) it was “• 0.192±0.096 • p<0.0001”. Besides, in the test with RAGE Fc chimera [4], the “binding of RAGE (far-Western dot blot)” value was “not significantly higher than RAGE binding to BSA”.
Turning to “bovine serum albumin [BSA, reference compound]”, the “binding of Aβ1–42 (far-Western dot blot)” value at Aβ1–42 [2] is reported as “No binding”. Besides, the “binding of RAGE (far-Western dot blot)” value on RAGE Fc chimera [4] was “did not detect visible binding”.

(Values after PMC5038948, “The Role of Neutrophil Proteins on the Amyloid Beta-RAGE Axis” (PLoS ONE, 2016).)
